The values that follow come from article doi:10.1101/298455 (bioRxiv, 2018).

For the assay, the target named is human eIF4E (human, UniProt P06730 1-217). The assay can be described thus: ELISA. (In general: In an ELISA, binding on a coated surface is turned into a signal by an enzyme label.)
Sequence of human eIF4E (P06730 whole entry): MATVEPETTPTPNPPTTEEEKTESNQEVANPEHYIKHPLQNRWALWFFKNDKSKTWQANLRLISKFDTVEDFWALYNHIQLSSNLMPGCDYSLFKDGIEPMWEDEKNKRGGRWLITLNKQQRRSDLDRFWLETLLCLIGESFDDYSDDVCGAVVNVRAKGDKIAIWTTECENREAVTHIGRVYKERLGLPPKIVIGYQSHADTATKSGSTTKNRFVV

As for RKKGKGKGTTVGMGKSSRRFINMYGF [GST-VPg5 fusion protein], the binding result was “binds”.
